Reference: patent US20180303952 (published 2018)

Biological target: T1, human CD147 (human, UniProt P35613)
T1 chain: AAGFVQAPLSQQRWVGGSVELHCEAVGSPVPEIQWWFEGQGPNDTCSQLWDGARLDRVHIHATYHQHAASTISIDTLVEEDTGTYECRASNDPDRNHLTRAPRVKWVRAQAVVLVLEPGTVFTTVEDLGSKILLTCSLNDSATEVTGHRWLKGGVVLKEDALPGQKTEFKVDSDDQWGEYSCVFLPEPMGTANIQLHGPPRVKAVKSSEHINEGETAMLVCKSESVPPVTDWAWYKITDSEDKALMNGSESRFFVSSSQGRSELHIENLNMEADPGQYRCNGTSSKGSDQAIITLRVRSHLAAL
Assay: ELISA

B1: mouse 3A11 (antibody, V domains shown)
VH: EVQLVESGGGLVQPGGSLRLSCAASGFTFSNYWMDWVRQAPGKGLEWVGEIRLKSYNYATHYAASVKGRFTISRDDSKNSVYLQMNSLKTEDTAVYYCTAAGTDYWGQGTLVTVSS
VL: SIVMTQIPKILLVSAGDRVTITCKASQSVRTDVAWYQQKPGQSPKLLIYYSSNRYTGVPDRFTGSGYGTDFTFTISTVQAEDLAVYFCQQDYSSPFTFGSGTKLEIK
Kd: 0.293 nM
